Laboratory results as given in US8993725B2, “Notch-based fusion proteins and uses thereof” (The Trustees of Columbia University in the City of New York, priority 2004, dated 2015).
“Also recorded” adds a separate entry of the source.

Columns and labels:
Type in all cases: cell-based, Human
[1] = test system: Notch signaling (CBF1 promoter activity) in HUVEC; assay: VEGF-induced Notch signaling, CBF1 promoter / CSL-luciferase reporter activity in HUVEC; details: for Inhibition of VEGF-induced CBF1 promoter activity: 40 MOI for each adenovirus; for Effect on VEGF-induced CBF1 promoter / CSL luciferase activity: co-infection (co-transduction) with Ad-VEGF in HUVEC
Description: To determine VEGF-induced Notch signaling, HUVEC which were infected with adenovirus were used. HUVEC plated 1-day prior in 6 well plates at 8.0×10^5 were infected with either Ad-LacZ as control or Ad-VEGF at indicated m.o.i. in the presence or absence of Ad-N1ECD/Fc. Two days after infection, infected HUVEC were re-seeded into 24-well plate at 1.5×10^5 cell in triplicate and cultured for 24 hours, and then transfected with 12.5 ng pRL-SV40 (Promega) and 137.5 ng pGA981-6 using Effectene transfection reagent (Qiagen). Cells were harvested either 1 or 2 days post-transfection and luciferase activity was determined by using the Dual-Luciferase® Reporter Assay System (Promega).
One can measure Notch signaling function by measuring transcriptional activity of CBF1 promoter, which is activated by binding of Notch-IC to CBF1. We measured CBF1 promoter activity in HUVEC which was infected with adenovirus encoding VECF-165 at different MOI (FIG. 6). Induction of CBF1 promoter was clearly detected in Ad-VEGF-infected HUVEC, compared to Ad-LacZ-infected cells in the MOI dependent manner. […] Thus VEGF induced Notch signaling activity.

Ad-VEGF-infected HUVEC = assay: VEGF-induced budding (sprouting assay) of Ad-VEGF-HUVEC on collagen gel; details: for Inhibition of VEGF-induced HUVEC budding: co-infection with Ad-VEGF; for Inhibition of VEGF-induced HUVEC budding / Effect of fusion protein adenovirus alone on HUVEC morphology / bud formation: collagen gel; for Effect of fusion protein adenovirus alone on HUVEC morphology / bud formation: without Ad-VEGF
Description: For making collagen gels, an ice-cold solution of porcine type I collagen (Nitta gelatin, Tokyo, Japan) was mixed with 10×RPMI1640 medium and neutralization buffer at the ratio of 8:1:1. 400 μl aliquots of collagen gel were then added to 24-well plates and allowed to gel for at least 1 hour at 37° C. Following adenoviral infection (above), HUVEC was harvested and plated at 1.3×10^5 cells per well onto the top of the collagen gel in 24-well plates in 0.8 ml of EGM2 medium. HUVEC became nearly confluent 48 hours after plating. After seeding, medium was changed every 2 days for 1 week. Sprouting was observed and photographs taken after 8 days with an Olympus digital camera mounted to a microscope. For quantification of the number of sprouts, 5 fields per each well were randomly selected and sprouting was counted under microscopy in a blind manner by two investigators.
HUVEC (Human Umbilical Vein Endothelial cells) growth are dependent on VEGF (FIGS. 26A and 26B) and differentiation-related biological responses, such as sprouting, and can be evaluated at an early stage (7). At first, we examined whether adenovirally transduced VEGF induced both Notch and Notch ligand expression in HUVEC cultured with complete medium containing bFGF (FIG. 22A), as reported (5). […] Transduced-VEGF also activated Notch signaling in a dose-dependent manner by measuring CSL-luciferase reporter activity (FIG. 22B), which was transactivated with Notch signaling (8). Notch signaling was activated at a higher dosage of Ad-VEGF, compared to proliferation (FIG. 26A). […] Since Notch mutants lacking both transmembrane and cytoplasmic domains functioned as dominant negative inhibitors against Notch signaling (9), we made a Notch-based fusion protein or decoy (N1ECDFc) to inhibit Notch signaling (FIG. 22D). […] Then, we examined whether N1ECDFc inhibited activation of Notch signaling by transduced VEGF in HUVEC (FIG. 22G). […] Gerhardt et al. reported that VEGF controlled angiogenesis in the early postnatal retina by guiding filopodia extension at the tips of the vascular sprouts (10). During angiogenic sprouting, the formation of a specialized endothelial cell making filopodia projections among quiescent endothelial cells, might be one of the early events. Here we mean formation of a single endothelial cell making filopodia protrusions as budding. Budding of the primary endothelial cells is induced by cultivating them 3-dimensionally on either fibrin or collagen gel (11). In the case where Ad-VEGF-HUVEC were cultured on collagen gel with complete medium, transduced-HUVEC made filopodia extensions into the collagen gel for 5 days (FIG. 22H) and the number of buds was increased in a dose-dependent manner (FIG. 27A). […] Since both VEGF and Notch signaling induce HUVEC budding, we examined whether N1ECDFc inhibited VEGF-induced HUVEC budding (FIG. 22H-I).

MT1-MMP mRNA = assay: RT-PCR analysis of MT1-MMP expression in Ad-VEGF-HUVEC
Description: (§1) FIGS. 24A-B show gelatin zymography analysis of MMP-9 and MMP-2 activity stimulated by VEGF in HUVEC. […] Transduced HUVEC were cultured on fibrin gel on the indicated day (i.e. D2, D4, D6, D8). Similar results were also obtained by using collagen gel, although induction of MMP-9 was stronger on fibrin gel than collagen gel (data not shown). […] HUVEC were transduced with Ad-N1ECDFc at the indicated doses and condition medium was collected from HUVEC cultured on collagen gel at day 4. FIGS. 24C-D show up-regulation of MMP-9 and MT1-MMP with Notch signaling. HUVEC were transduced with either Ad-LacZ or Ad-N1IC at 40 MOI. Numbers show PCR cycles. […] HUVEC were transduced with Ad-VEGF in the absence or presence of co-transduction of Ad-N1ECDFc at 40 MOI each. Ad-LacZ was co-transduced to make the same total amount of adenovirus at 80 MOI.
(§2) Requisition of MMPs for angiogenic sprouting has been established by synthetic MMP inhibitors (16). GM6001 is one broad inhibitor against MMPs including MMP2, MMP9 and MT1-MMP (18).

MMP2 = assay: Gelatin zymography of conditioned medium of transduced HUVEC, MMP-2; details: co-transduction with Ad-VEGF; collagen gel, day 4
Description: as §1, §2

MMP9 = assay: Gelatin zymography of conditioned medium of transduced HUVEC, MMP-9; details: co-transduction with Ad-VEGF; fibrin gel
Description: as §1, §2

[2] = listed as Ad-Notch fusion protein
[3] = listed as Ad-Notch-based fusion protein

B1: N1ECDFc: Notch-based fusion protein or decoy: extracellular domain of Notch1 containing the EGF-repeats fused to the Fc portion of an antibody (protein)
chain: ARGLRCSQPSGTCLNGGRCEVANGTEACVCSGAFVGQRCQDPSPCLSTPCKNAGTCYVVDHGGIVDYACSCPLGFSGPLCLTPLANACLANPCRNGGTCDLLTLTEYKCRCPPGWSGKSCQQADPCASNPCANGGQCLPFESSYICGCPPGFHGPTCRQDVNECSQNPGLCRHGGTCHNEIGSYRCACRATHTGPHCELPYVPCSPSPCQNGGTCRPTGDTTHECACLPGFAGQNCEENVDDCPGNNCKNGGACVDGVNTYNCRCPPEWTGQYCTEDVDECQLMPNACQNAGTCHNSHGGYNCVCVNGWTGEDCSDNIDDCASAACFQGATCHDRVASFYCECPHGRTGLLCHLNDACISNPCNEGSNCDTNPVNGKAICTCPRGYTGPACSQDVDECALGANPCEHAGKCLNTLGSFECQCLQGYTGPRCEIDVNECISNPCQNDATCLDQIGEFQCICMPGYEGVYCEINTDECASSPCLHNGRCVDKINEFLCQCPKGFSGHLCQYDVDECASTPCKNGAKCLDGPNTYTCVCTEGYTGTHCEVDIDECDPDPCHIGLCKDGVATFTCLCQPGYTGHHCETNINECHSQPCRHGGTCQDRDNYYLCLCLKGTTGPNCEINLDDCASNPCDSGTCLDKIDGYECACEPGYTGSMCNVNIDECAGSPCHNGGTCEDGIAGFTCRCPEGYHDPTCLSEVNECNSNPCIHGACRDGLNGYKCDCAPGWSGTNCDINNNECESNPCVNGGTCKDMTSGYVCTCREGFSGPNCQTNINECASNPCLNQGTCIDDVAGYKCNCPLPYTGATCEVVLAPCATSPCKNSGVCKESEDYESFSCVCPTGWQGQTCEIDINECVKSPCRHGASCQNTNGSYRCLCQAGYTGRNCESDIDDCRPNPCHNGGSCTDGVNAAFCDCLPGFQGAFCEEDINECATNPCQNGANCTDCVDSYTCTCPTGFNGIHCENNTPDCTESSCFNGGTCVDGINSFTCLCPPGFTGSYCQYDVNECDSRPCLHGGTCQDSYGTYKCTCPQGYTGLNCQNLVRWCDSAPCKNGGKCWQTNTQYHCECRSGWTGFNCDVLSVSCEVAAQKRGIDVTLLCQHGGLCVDEEDKHYCHCQAGYTGSYCEDEVDECSPNPCQNGATCTDYLGGFSCKCVAGYHGSNCSEEINECLSQPCQNGGTCIDLTNTYKCSCPRGTQGVHCEINVDDCHPPLDPASRSPKCFNNGTCVDQVGGYTCTCPPGFVGERCEGDVNECLSNPCDPRGTQNCVQRVNDFHCECRAGHTGRRCESVINGCRGKPCRNGGVCAVASNTARGFICRCPARFEGATCENDARTCGSLRCLNGGTCISGPRSPTCLCLGSFTGPECQFPASSPCVGSNPCYNQGTCEPTSESPFYRCLCPAKFNGLLCHILDYSFTDLGPG
modifications: left off: a dimerising Fc or GST
notes: Notch-based fusion protein or decoy: extracellular domain of Notch1 containing the EGF-repeats fused to the Fc portion of an antibody
[1]; 24 hr after reporter gene transfection
  Inhibition of VEGF-induced CBF1 promoter activity: 60%
[1]; 48 hr after reporter gene transfection
  Inhibition of VEGF-induced CBF1 promoter activity: 90%
[1]; listed as Ad-N1ECDFc
  Effect on VEGF-induced CBF1 promoter / CSL luciferase activity: clearly decreased CSL luciferase activity induced by VEGF
[1]; [2]
  Effect on VEGF-induced CBF1 promoter / CSL luciferase activity: clearly reduced activation of CBF1 promoter activity
[1]; [3]
  Effect on VEGF-induced CBF1 promoter / CSL luciferase activity: clearly reduced activation of CBF1 promoter activity
[1]; co-infection with Ad-VEGF in HUVEC
  MOI dependence of the inhibitory activity on VEGF-induced CBF1 promoter activity: dependent on MOI
Ad-VEGF-infected HUVEC
  Inhibition of VEGF-induced HUVEC budding: clearly inhibited
Ad-VEGF-infected HUVEC; listed as Ad-N1ECDFc
  Inhibition of VEGF-induced HUVEC budding: clearly inhibited; also recorded: inhibition of budding
  Effect of fusion protein adenovirus alone on HUVEC morphology / bud formation: Neither Ad-LacZ or Ad-N1ECDFc-transduced HUVEC formed buds
Ad-VEGF-infected HUVEC; listed as Notch fusion protein
  Inhibition of VEGF-induced HUVEC budding: clearly inhibited; also recorded: could inhibit VEGF-induced budding
Ad-VEGF-infected HUVEC; co-transduction with Ad-VEGF
  Cell number in VEGF-induced HUVEC budding assay: without affecting cell number
Ad-VEGF-infected HUVEC; [2]
  Effect of fusion protein adenovirus alone on HUVEC morphology / bud formation: had less effect on morphology
Ad-VEGF-infected HUVEC; [3]
  Effect of fusion protein adenovirus alone on HUVEC morphology / bud formation: had less effect on morphology
MT1-MMP mRNA; Ad-LacZ infected HUVEC, data not shown
  Expression of MT1-MMP, fusion protein adenovirus alone: did not affect expression of either MMP9 or MT1-MMP
MT1-MMP mRNA; co-transduction with Ad-VEGF, 40 MOI each
  VEGF-induced up-regulation of MT1-MMP mRNA: this induction was inhibited
MMP2
  VEGF-stimulated activation of MMP2 (gelatin zymography): inhibition
MMP9
  VEGF-stimulated induction and activation of MMP9 (gelatin zymography): inhibition of both induction and activation of MMP9
